Changes are numbered by the printed parent chain.

First the molecules themselves.
B1: ADI-14448 (antibody, V domains shown)
VH: EVQLVESGGGLVKPGGSLRLSCAASGSSFRYSYMSWVRQAPGKGLQWVASISPSSTYTDYADSVKGRSTISRDHDKISLQVNSLRGDDTAVYYCVRHMNLVMGPFAFDIWGRGTMVTVSS
VL: QSVVTQPPSLSGAPGQRITISCTGSSSNIGAGYDVNWYQQLPGTAPKLLIYAKTNRPSGVPERFSGSESGTSASLAITGLQPEDEADYYCQSYDRIGMYVFGTGTKLTVL
B2: ADI-14516 (antibody, V domains shown)
VH: QVQLVQSGVEVKKPGASVKVSCKTSGYTFSNYGVTWVRQAPGQGLEYMGWISAYNGNTNYAQNVQGRLTMTTDTSTSTGYMELRRLTSDDTAVYFCARDKGVTVAGSLLDYWGQGTLVTVSS
VL: EIVMTQSPLSLPVTLGQPASISCRSSQSLEHSDGNTYLNWFQQRPGQSPRRLIYKVSNRDSGVPDRFSGSGSGTDFTLKINRVEAEDVGVYYCMESTHWPPYTFGQGTKVEIK
B3: ADI-14444 (antibody, V domains shown)
VH: QVQLVQSGPDVKRPGASVRVSCKASGYTFSDYYMHWVRQAPGQGLEWLAWVNPSTGATHYSESFRGSMVVQRDTSTDTAYLELSSLKSDDTAVYYCARIGSNEIWGQGTMVTVSS
VL: QSALTQPASVSGSPGQSITISCAGTSSDIGGWNYVSWYQQYPGQVPKLILYEVTDRPSGVSHRFSGSKSGNRAFLTITGLRAEDEADYYCCSFTSSGSRVFGGGTKVTVL
B4: ADI-14493 (antibody, V domains shown)
VH: QVQLQQWGTGLVKPSETLSLTCAVSGGAFSGHQWNWFRQPPGKGLEWIGEINVSGNTHYNVSLRSRVTISLDESKKQFSLKMTSVTAADTAIYYCAKASSGSYHFEYWFDPWSQGTMVTVSS
VL: SYELTQPPSVSVAPGKMAWFTCGGSDIGSKRVHWYQQKPGQAPVLLVYDDSLRPSGTSARVSGSTSGNTATLSIISVEAGDEADYFCQVWDDADDHAVFGGGTKLTVL
B5: ADI-14521 (antibody, V domains shown)
VH: QVQLVQSGTEVKKPGASVKVSCLTSGYTFTHFGISWVRQAPGQGLEWMGWFSAYNGNTKYAQKFQGRITLTIDTSTSIAYLELRSLRSDDTAVYYCARDPPSLTAAGTLDYWGQGTLVTVSS
VL: DIRLTQSPLSLPVTLGQPASISCSSNQSLVYSDGNTYLSWFQQRPGQSPRRLIYKVSDRDSGVPDRFSGSGSGTDFTLKISRVEAEDVGVYYCMQATDWPRTFGQGTKVEIK
B6: ADI-14520 (antibody, V domains shown)
VH: QVQLQQWGAGLVKPSETLSLTCAVYGGSFSGYQWHWFRQPPGKGLEWIGEINHSEITHYNASLKSRVTLSIDTSKNQFSLNLTSVTAADTAVYYCARASSGSYNFEYWFDPWGQGTLVTVSS
VL: QSVLTQPPSVSVAPGKTAWLTCGGNNIGSKRVHWYRQKPGQAPVLVVYDDYDRPSGTPERVSGSNSGNTATLTISRVEDGDEGDYYCQVWDDPSDHAVFGGGTKLTVL
B7: ADI-14508 (antibody, V domains shown)
VH: QVQLVQSGTEVKKPGASVKVSCKGSGYMFANFGVSWVRQAPGRGLEWIGWISAYNGNTYYGREQGRFTMTTDTNTAYLELTSLRYDDTALYFCARDSGATAAGILWDYWGQGTLVTVSS
VL: EIVMTQSPLSLPVTLGQPASISCRSSQSLAYTDGSTYLNWFHQRPGQSPRRLIYKVFNRDSGVPDRFSGSGAGTDFTLTISRVEAEDVGVYYCMQATHWPRTFGQGTKVDIK
B8: ADI-14515 (antibody, V domains shown)
VH: QVQLVQSGGGVVQPGSSLRLSCSASGFTFMTYGMHWARQAPGKGLEWVADISFDANKKYYRDSVKGRFTISRDNSKNTVYLQMNSLRPEDTAVYFCARNTIFGVVDYWGQGTLVTVSS
VL: EIVLTQSPATLSVSPGERATLSCRASQSVSANLAWYQHKPGQAPRLLIYGASTRASDIPARFSGSGSGTEFTLTISSLQSEDSAVYYCQQYNNWPPWTFGQGTKVEIK
B9: ADI-14505 (antibody, V domains shown)
VH: QVQLVQSGAEVKKPGASVKVSCKASGNSFNDFYMHWVRQAPGQGLEWMGWIDPNNGGANYAQKFHGRVTMTRDSSINTAYMELSRLRSDDTAVYYCASEPPGVGFGLIPHYYFDNWGQGTLVTVSS
VL: EIVMTQSPDSLAVSLGERATINCKSSQNVLDTSNNKNYLAWYQQKPGQPPRLLIYWASARGSGVPDRFSGSGSGTHFTLTISSLQAEDVAVYYCQQYFSIPPTFGQGTKVEIK
B10: ADI-14442 (antibody, V domains shown)
VH: QVQLVQSGSEVKKPGASVKVSCKASGYRFSNYGISWVRQAPGQGLEWMGWISAYNGNIKYGNNLQGRVTVTTDTSTATAYMEVRSLTSDDTAVYYCARDVPADGVHFMDVWGQGTLVTVSS
VL: EIVMTQSPLSLPVTLGQPASISCRSSQSLVHSDTNTYLNWFQQRPGQSPRRLIYKVSNRDSGVPDRFSGSGSGTTFTLKISRVEAEDVGIYYCMQGSHWAPTFGQGTKVEIK
B11: ADI-14509 (antibody, V domains shown)
VH: QVQLVQSGSEVKKPGASVTLSCKASGYRFSNYGVSWVRQAPGQGLEWMGWISGYNGNIKYGNSLQGRVTLTTDTTTAYMEVTSLTSDDTAVYYCARDVPADGVHFMDVWGKGTTVTVSS
VL: B10 VL with M4L, N39T, N58H, S81A, Q95E, E110D
B12: ADI-14455 (antibody, V domains shown)
VH: QVQLVQSGAEVKKPGASVKVSCKASGYTFTSYGTSWVRQAPGQGLEWMGWISAYNGNTNYAQNLQGRVTMTTDTSTSTSYMELRSLRSDDTAVYYCARDVPVIAAGTMDYWGQGTLVTVSS
VL: B10 VL with E1D, S7T, H31Y, T34G, T75D, I90V, S97P, A100P, P101R
B13: ADI-14489 (antibody, V domains shown)
VH: B10 VH with A77T, Q113K, L116T
VL: B10 VL with E1D, S7T
B14: ADI-14514 (antibody, V domains shown)
VH: B11 VH with L20V, G53A, I58T, T82R, A100G
VL: B10 VL with P18S, N39T, N58H, Q95E
B15: ADI-14496 (antibody, V domains shown)
VH: QVQLVQSGAEVKKPGESLKISCQGSGYSFRSYWIGWVRQKPGKGLEYMGIIFPNDFDTRYSPSFQGQVTISVDKSTSTAFLQWTSLQASDTAIYYCGRQELQGSFTIWGQGTMVTVTS
VL: DIVMTQSPSSLSASVGDRVTITCQASQDMGNSLNWYQQKSGKAPKLLIYDASYLDSGVPSRFSGSGSGTHFTFTISTLQPEDIATYYCQHYDNLLLFTFGPGTKLEIK
B16: ADI-14501 (antibody, V domains shown)
VH: QVQLVQSGAEVKKPGSSVKISCKASGGTFKSQAIHWVRQAPGQGLEWMGNIIPTYGSPNFAQRFLGRVTFIADDSTGAASMDLYRLTSEDTAVYYCATAGWFGELVRFDSWGQGTLVTVSS
VL: DIVMTQSPATLSVSPGERATLSCRATESISSNLAWYQQKPGQAPRLLIYGASTRATGIPARFSGSGSGTEFTLTINSLQSEDFAVYYCQQYNNWPPLTFGGGTKVDIK
B17: ADI-14502 (antibody, V domains shown)
VH: QVQLVQSGAEVKKPGSSVKVSCKASGDTFSMYAISWVRQAPGQGLEWMGGVLPMLGTSNYAQQFRGRVTITADGSTSTAYMEMSNLRFEDTAVYYCARVAGLGNSYGRYFDVWGQGTLVTVSS
VL: DIRMTQSPSSVSASIGDRVTITCRASQDISTSLAWYQQRPGKAPNLLIYAASTLHSGVPSRFRGSESGPDFTLTISSLQPEDVGTYYCQQAKSFPYTFGQGTKLEIK
B18: ADI-14518 (antibody, V domains shown)
VH: QVQLVQSGPEVKKPGASVRVSCKTSGFTLSHYGVSWLRQAPGHGLEWLGWISAYNYNTQFGHRMEGRLTMTTDTSTAYMDLTSLTSDDTAIYYCARDSPSDTAAALLDFWGQGTLVTVSS
VL: DIVLTQSPLSLPVTLGQPASISCRSSQSLVYSDGNTYLSWFQQRPGQAPRRLIYKISNRDSGVPDRFSGSGSGTDFTLKISRVEAEDVGIYYCMQATHWPRLSFGGGTKVEIK
B19: ADI-14451 (antibody, V domains shown)
VH: EVQLVESGAEVRKPGASVKVSCKASGYIFINYYIHWVRQAPGQGLEWMGWINPNSGASNHAQTFEGRITMTTDTSSNTAYMELSRLREDDTAVYYCARSQQLLVITDYSLDYWGLGTLVTVSS
VL: SSELTQDPAVSVALGQTVRITCHGDTLRNYYPAWYQQKPGQAPVLVVSDRNTRPSGIPDRFSVSTSGNTASLTITGAQAEDEGDYYCNCRDSSGHRLVFGGGTKLTVL
B20: ADI-14519 (antibody, V domains shown)
VH: EVQLVESGAEMKQPGASVKVSCEGFGNTLSERSIHWVRQAPGKGPEWMGDYDHEDKEAIYAPKFQGRLTISADMSTDIASLELNSLTSEDTAVYYCATVIAVGAYDIWGQGTLVTVSS
VL: EIVLTQSPSSLYASIGDRVTITCRTGQSISRYLNWYQQKPGKAPKLLIYAASTLQSGVPSRFSGSGAGTDFTLTIRGLLPEDFATYFCQQSYIIPYTFGQGTKVEIK

The target of one assay is RSV F protein of recombinant mKate-RSV, subtype B (18537) (Respiratory syncytial virus subtype B …, UniProt P13843 26-574). Nature of the assay: cell-based or functional assay.
As for B1, the “Neut IC50 subtype B” value came out at 0.066 µg/mL.
With B2, the “Neut IC50 subtype B” value is 0.047 µg/mL.
For the molecule B3, the “Neut IC50 subtype B” value was above 10 µg/mL.
For B4, the “Neut IC50 subtype B” value worked out at 1.27 µg/mL.
Regarding B5, the “Neut IC50 subtype B” value is 0.123 µg/mL.
For the molecule B6, the “Neut IC50 subtype B” value was 0.045 µg/mL.
With B7, the “Neut IC50 subtype B” value was 0.057 µg/mL.
For B8, the “Neut IC50 subtype B” value came to 0.049 µg/mL.
On to B9, for which the “Neut IC50 subtype B” value came to 0.018 µg/mL.
B10: the “Neut IC50 subtype B” value came to 0.015 µg/mL.
Same read-out and setting: for B11 the value was 0.016 µg/mL; for B12, 0.036 µg/mL; for B13, 0.021 µg/mL.
Turning to B14, the “Neut IC50 subtype B” value amounted to 0.074 µg/mL.
Turning to B15, the “Neut IC50 subtype B” value was above 10 µg/mL.
B16: the “Neut IC50 subtype B” value was 2.29 µg/mL.
B17: the “Neut IC50 subtype B” value amounted to 2.72 µg/mL.
In the case of B18, the “Neut IC50 subtype B” value came to 0.032 µg/mL.
Still for that read-out and setting: for B19 the value was 0.06 µg/mL.
Consider B20, for which the “Neut IC50 subtype B” value stood at 3.43 µg/mL.

Another assay concerns the target RSV F protein of recombinant mKate-RSV, subtype A (strain A2) (Respiratory syncytial virus subtype A …, UniProt P03420 26-574). The assay can be described thus: cell-based or functional assay.
For the molecule B1, the “Neut IC50 subtype A” value is 0.043 µg/mL.
On the same count and under the same terms, for B2 the value was 0.018 µg/mL; for B3, above 10 µg/mL; for B4, 0.009 µg/mL.
With B5, the “Neut IC50 subtype A” value was 0.083 µg/mL.
Take B6: the “Neut IC50 subtype A” value was found to be 0.029 µg/mL.
As to B7, the “Neut IC50 subtype A” value was 0.029 µg/mL.
Same read-out and setting: to B8 belongs 0.051 µg/mL.
For B9, the “Neut IC50 subtype A” value is 0.065 µg/mL.
Regarding B10, the “Neut IC50 subtype A” value was 0.002 µg/mL.
In the case of B11, the “Neut IC50 subtype A” value was 0.011 µg/mL.
For B12, the “Neut IC50 subtype A” value is 0.012 µg/mL.
For B13, the “Neut IC50 subtype A” value is 0.023 µg/mL.
Take B14: the “Neut IC50 subtype A” value is 0.046 µg/mL.
For B15, the “Neut IC50 subtype A” value worked out at 0.006 µg/mL.
As to B16, the “Neut IC50 subtype A” value turned out to be 12.3 µg/mL.
On to B17, for which the “Neut IC50 subtype A” value was above 10 µg/mL.
For the molecule B18, the “Neut IC50 subtype A” value turned out to be 0.019 µg/mL.
Still for that read-out and setting: to B19 belongs 0.02 µg/mL; to B20, 12.2 µg/mL.

The values are drawn from US20250313612A1 (Adimab, published 2025).
